One experiment addresses HIF-2α PAS-B. As to the kind of experiment: 2α (μM). The source says: Table printed on a drawing sheet, Figure 3 (part 1 of 3) A
Head of the field: 2α (μM)
The patent's description of the figure: FIG. 3

The target of a further experiment is T1, HIF-1α PAS-B (238-349) (Homo sapiens, UniProt Q16665).
T1 construct: human HIF-1α PAS-B (238-349); His tag; made in house; host or cells: E. coli BL21(DE3)-Rosetta, pET28a
As to the kind of experiment: MST binding to recombinantly expressed HIF-1α PAS-B domain. The settings on record: for affinity for the PAS-B domain of HIF-1α compared with cyclo-CLLFVY: compared with previously reported HIF-1 dimerization inhibitor. On the procedure: (§1) Genes encoding for human HIF-1α PAS-B (238-349) and HIF-2α PAS-B (240-350) were each cloned into pET28a vectors at the BamHI and SacI restriction sites. The recombinant plasmids were next transformed into BL21(DE3)-Rosetta chemically competent cells. Cells were grown in LB media at 37° C. to an OD600 of 0.7, after which expression was induced by addition of 0.5 mM IPTG. Following overnight expression at 16° C., cells were pelleted and resuspended in buffer containing 50 mM Tris, 150 mM NaCl, 5% glycerol, 1 mM TCEP, protease inhibitors (Roche) and 20 mM imidazole, pH 8.0. Cells were lysed by sonication, and the supernatant applied to a 1 mL Histrap FF affinity column. The His-tagged protein of interest was eluted with buffer containing 50 mM Tris, 150 mM NaCl, 5% glycerol, 1 mM TCEP and 250 mM imidazole. The protein was then loaded onto a HiLoad 16/600 superdex 75 pg size exclusion column (GE healthcare) equilibrated with assay buffer containing 50 mM Tris, 150 mM NaCl, 5% glycerol and 1 mM TCEP, pH 8.0. Fractions containing the desired protein were flash-frozen and stored at −80° C. prior to use.
(§2) HIF-α proteins were labelled with Monolith NT-647 labelling dye (Nanotemper Technologies GmbH) according to the manufacturer's instructions. MST experiments were performed on a Monolith NT.115 system (Nanotemper Technologies GmbH), in assay buffer containing 50 nM labelled protein, 10% DMSO and 0.05% TWEEN-20. MST measurements were performed using 50% LED and 50% MST power.

A further experiment has as its target T2, HIF-2α PAS-B (240-350) (Homo sapiens, UniProt Q99814).
T2 construct: HIF-2α PAS-B (240-350); His tag; made in house; host or cells: E. coli BL21(DE3)-Rosetta, pET28a
As to the kind of experiment: MST binding to recombinantly expressed HIF-2α PAS-B domain. The settings on record: MST, recombinant HIF-2α PAS-B domain; read-out: Kd / binding affinity for 2α PAS-B. On the procedure: The three lead peptides were next chemically synthesised, using Fmoc-solid phase peptide synthesis methodology, followed by in-solution cyclisation under high dilution conditions.
as §1, with “use. […]” for “use.”

For experiment [1], the target named is T3, human HIF-1α PAS-B (238-349), recombinant, His-tagged (human, UniProt Q16665 238-349, labelled with Monolith NT-647 dye for MST).
T3 construct: range 238-349; Expressed in E. coli BL21(DE3)-Rosetta from pET28a; also called HIF-1α PAS-B domain; PAS-B domain of HIF-1α; not shown: His tag from pET28a vector (BamHI/SacI cloning)
As to the kind of experiment: MST, HIF-1α PAS-B; bar chart of Kd (µM) for residues at position 5 of CRLIIF.

For experiment [2], the target named is T3, human HIF-1α PAS-B (238-349), …. As to the kind of experiment: MST, HIF-1α PAS-B; bar chart of Kd (µM) for residues at position 1 of CRLIIF.
Experiment [3] shares this target. Nature of the experiment: MST, NT-647-labelled recombinant 1α PAS-B. As to the method: as §2
The target in experiment [4] is T4, human HIF-2α PAS-B (240-350), recombinant, His-tagged (human, UniProt Q99814 240-350, labelled with Monolith NT-647 dye for MST).
T4 construct: range 240-350; Expressed in E. coli BL21(DE3)-Rosetta from pET28a; also called PAS-B domain of HIF-2α; not shown: His tag from pET28a vector (BamHI/SacI cloning)
Nature of the experiment: MST, HIF-2α PAS-B (column 2α (µM)).

The target in experiment [5] is T3, human HIF-1α PAS-B (238-349), …. As to the kind of experiment: MST, HIF-1α PAS-B (column 1α (µM)).

Entries after “also recorded” stand apart in the source; their conditions may differ. Numbered stars: 1 amine (or outer) side, 2 acyl side, 3 side chain; on linkers, the order of the positions; unused ones are H or OH. Square brackets hold non-standard residues; d marks the D form. Peptide text beside a SMILES is read from it. Cys(Me) = S-methylcysteine, cys(Me), CSC[C@H](N[*:1])C(=O)[*:2]; Pen = CC(C)(S)[C@H](N)C(=O)O; hLeu = CC(C)CC[C@H](N)C(=O)O; hCys = N[C@@H](CCS)C(=O)O; Nle = CCCC[C@H](N)C(=O)O; Nva = CCC[C@H](N)C(=O)O; Aib = CC(C)(N)C(=O)O Some results are limits rather than exact numbers.

T1 sequence (Q16665 238-349): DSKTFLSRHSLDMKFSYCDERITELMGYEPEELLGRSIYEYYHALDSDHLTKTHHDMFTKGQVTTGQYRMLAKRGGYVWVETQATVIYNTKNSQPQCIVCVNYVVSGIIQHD
T3 sequence (Q16665 238-349): as above
T4 sequence (Q99814 240-350): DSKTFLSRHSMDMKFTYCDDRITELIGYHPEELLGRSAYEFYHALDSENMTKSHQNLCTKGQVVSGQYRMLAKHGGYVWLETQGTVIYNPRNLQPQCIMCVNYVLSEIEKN
T2 sequence (Q99814 240-350): as above

For the molecule `CC[C@H](C)[C@@H]1NC(=O)[C@H](CC(C)C)NC(=O)[C@H](CCCNC(=N)N)NC(=O)[C@H](CS)NC(=O)[C@H](Cc2ccccc2)NC(=O)[C@H](C)NC1=O` [compound 10, CRLIAF], the Kd at HIF-2α PAS-B was 269 ± 7 µM. Same read-out and setting: next, `CC[C@H](C)[C@@H]1NC(=O)[C@H](C)NC(=O)[C@H](CCCNC(=N)N)NC(=O)[C@H](CS)NC(=O)[C@H](Cc2ccccc2)NC(=O)[C@H]([C@@H](C)CC)NC1=O` [compound 8, CRAIIF] (cyclo(CRAIIF)): 52 ± 7 µM. In the case of `CC[C@H](C)[C@@H]1NC(=O)[C@H](CC(C)C)NC(=O)[C@H](CCCNC(=N)N)NC(=O)[C@H](CS)NC(=O)[C@H](Cc2ccccc2)NC(=O)C(C)(C)NC1=O` [Cyclic peptide #38, cyclo-cys agr leu ile (Aib) phe (Aib)F] (cyclo([Aib]FCRLI)), the “affinity relative to parent peptide CRLIIF (in words)” value on HIF-1α PAS-B (238-349) (MST, SAR substitutions, listed as Aib derivative) is “weaker Kd than the parent compound; also recorded: markedly improved affinity over both the alanine and aminobutyric acid”.

For the molecule `CC[C@H](C)[C@@H]1NC(=O)[C@H](CC(C)C)NC(=O)[C@H](CCCNC(=N)N)NC(=O)[C@H](C)NC(=O)[C@H](Cc2ccccc2)NC(=O)[C@H]([C@@H](C)CC)NC1=O` [Cyclic peptide #9, cyclo-ala agr leu ile ile phe] (cyclo(ARLIIF)), the “Kd / binding affinity for 1α PAS-B” value on HIF-1α PAS-B (238-349) (MST, recombinant HIF-1α PAS-B domain) is “could not be determined”. Consider `CC[C@H](C)[C@@H]1NC(=O)[C@H](CC(C)C)NC(=O)[C@H](CCCCN)NC(=O)[C@H](CS)NC(=O)[C@H](Cc2ccccc2)NC(=O)[C@H]([C@@H](C)CC)NC1=O` [Cyclic peptide #1, cyclo-cys lys leu ile ile phe] (cyclo(CKLIIF)), for which the “selectivity between 1α and 2α PAS-B domains (in words)” value at HIF-1α PAS-B (238-349) (MST, 1α vs 2α PAS-B) was “little difference in selectivity”. The “affinity for the PAS-B domain of HIF-1α compared with cyclo-CLLFVY” value at HIF-1α PAS-B (238-349) was “improved affinities”. `CC[C@H](C)[C@@H]1NC(=O)[C@H](CC(C)C)NC(=O)[C@H](CC(C)C)NC(=O)[C@H](CCCNC(=N)N)NC(=O)[C@H](CS)NC(=O)[C@H](Cc2ccccc2)NC1=O` [Cyclic peptide #2, cyclo-cys arg leu leu ile phe] (cyclo(CRLLIF)): the Kd on HIF-2α PAS-B (240-350) was in the range of 10 to 14 µM; at HIF-1α PAS-B (238-349) (MST, recombinant HIF-1α PAS-B domain, read-out: Kd / binding affinity for 1α PAS-B) it was 10 to 14 µM. The “affinity for the PAS-B domain of HIF-1α compared with cyclo-CLLFVY” value at HIF-1α PAS-B (238-349) is on record as “improved affinities”.

B1: cyclo-cys arg leu ile h-leu phe (peptide)
peptide: cyclo(CRLI[hLeu]F)
SMILES: CC[C@H](C)[C@@H]1NC(=O)[C@H](CC(C)C)NC(=O)[C@H](CCCNC(=N)N)NC(=O)[C@H](CS)NC(=O)[C@H](Cc2ccccc2)NC(=O)[C@H](CCC(C)C)NC1=O
notes: also called Cyclo-CRLI(hL)F; cyclic peptide #33
On to B1, for which the binding result in experiment [1] is “binds”.

B2: cyclo-hcys arg leu ile ile phe (peptide)
peptide: cyclo([hCys]RLIIF)
SMILES: CC[C@H](C)[C@@H]1NC(=O)[C@H](CC(C)C)NC(=O)[C@H](CCCNC(=N)N)NC(=O)[C@H](CCS)NC(=O)[C@H](Cc2ccccc2)NC(=O)[C@H]([C@@H](C)CC)NC1=O
notes: also called Cyclo-hCRLIIF; cyclic peptide #13d
As for B2, the Kd in experiment [2] is 44 µM.

B3: cyclo-Pen arg leu ile ile phe (peptide)
peptide: cyclo([Pen]RLIIF)
SMILES: CC[C@H](C)[C@@H]1NC(=O)[C@H](CC(C)C)NC(=O)[C@H](CCCNC(=N)N)NC(=O)[C@H](C(C)(C)S)NC(=O)[C@H](Cc2ccccc2)NC(=O)[C@H]([C@@H](C)CC)NC1=O
notes: also called Cyclo-PenRLIIF; cyclic peptide #12d
As to B3, the Kd in experiment [2] was found to be 9 µM.

B4: C(Me) (peptide)
cyclic peptide: cyclo([Cys(Me)]RLIIF)
SMILES: CC[C@H](C)[C@@H]1NC(=O)[C@H](CC(C)C)NC(=O)[C@H](CCCNC(=N)N)NC(=O)[C@H](CSC)NC(=O)[C@H](Cc2ccccc2)NC(=O)[C@H]([C@@H](C)CC)NC1=O
notes: Bar 'C(Me)' in the chart of C1 substitutions of CRLIIF; Comparative peptide; also called Cyclo-C(Me)RLIIF; cyclo-(methyl)cys arg leu ile ile phe
For the molecule B4, the Kd in experiment [2] amounted to 62 µM.

B5: cyclo-cys arg leu ile ile phe (peptide)
peptide: CRLIIF
modifications: head-to-tail cyclic (cyclo-)
notes: also called CRLIIF; cyclic peptide #4
Turning to B5, the Kd in experiment [2] came to 3.9 µM; in experiment [3] it was 3.8 µM; in experiment [4] it was 11 µM. Besides, the “fold greater affinity than CKLLIF” value in experiment [3] is about 3 fold.

B6: cyclo-cys arg leu ile ala phe (peptide)
peptide: CRLIAF
modifications: head-to-tail cyclic (cyclo-)
notes: also called CRLIAF; cyclic peptide #7
As to B6, the figures for the Kd in experiment [5] and in experiment [4] were 111 µM and 269 µM, respectively.

B7: cyclo-cys ala leu ile ile phe (peptide)
peptide: CALIIF
modifications: head-to-tail cyclic (cyclo-)
notes: also called CALIIF; cyclic peptide #10
With B7, the Kd in experiment [5] worked out at 30 µM; in experiment [4], 12 µM.

B8: T (peptide)
cyclic peptide: TRLIIF
modifications: head-to-tail cyclised
notes: Bar 'T' in the chart of C1 substitutions of CRLIIF; Comparative peptide; also called Cyclo-TRLIIF; cyclo-thr arg leu ile ile phe
Take B8: the Kd in experiment [2] was over 200 µM.

B9: cyclo-cys arg leu ala ile phe (peptide)
peptide: CRLAIF
modifications: head-to-tail cyclic (cyclo-)
notes: also called CRLAIF; cyclic peptide #6
Regarding B9, the Kd in experiment [5] turned out to be 13 µM; in experiment [4] it was 61 µM.

B10: cyclo-cys arg ala ile ile phe (peptide)
peptide: CRAIIF
modifications: head-to-tail cyclic (cyclo-)
notes: also called CRAIIF; cyclic peptide #11
For B10, the Kd was 53 µM in experiment [5] and 52 µM in experiment [4].

B11: cyclo-cys lys leu leu ile phe (peptide)
peptide: cyclo(CKLLIF)
modifications: not fully specified
notes: also called CKLLIF; cyclic peptide #5
For the molecule B11, the Kd in experiment [3] stood at 12 µM.

B12: cyclo-cys arg leu ile ile ala (peptide)
peptide: CRLIIA
modifications: head-to-tail cyclic (cyclo-)
notes: also called CRLIIA; cyclic peptide #8
As to B12, the Kd in experiment [5] was found to be 91 µM; in experiment [4], 373 µM.

B13: cyclo-cys arg leu ile val phe (peptide)
peptide: CRLIVF
modifications: head-to-tail cyclic (cyclo-)
notes: also called Cyclo-CRLIVF; cyclic peptide #37
As to B13, the binding result in experiment [1] is listed as “binds”.

B14: S (peptide)
cyclic peptide: SRLIIF
modifications: head-to-tail cyclised
notes: Bar 'S' in the chart of C1 substitutions of CRLIIF; Comparative peptide; also called Cyclo-SRLIIF; cyclo-ser arg leu ile ile phe
For B14, in experiment [2], the Kd was determined as 169 µM.

B15: cyclo-cys arg leu ile leu phe (peptide)
peptide: CRLILF
modifications: head-to-tail cyclic (cyclo-)
notes: also called Cyclo-CRLILF; cyclic peptide #36
Regarding B15, the binding result in experiment [1] was “binds”.

B16: cyclo-ala arg leu ile ile phe (peptide)
peptide: ARLIIF
modifications: head-to-tail cyclic (cyclo-)
notes: also called ARLIIF; cyclic peptide #9
In the case of B16, in experiment [2], the Kd is over 200 µM.

B17: M (peptide)
cyclic peptide: MRLIIF
modifications: head-to-tail cyclised
notes: Bar 'M' in the chart of C1 substitutions of CRLIIF; Comparative peptide; also called Cyclo-MRLIIF; cyclo-met arg leu ile ile phe
With B17, in experiment [2], the Kd is 108 µM.

B18: cyclo-cys arg leu ile (n-leu) phe (peptide)
peptide: cyclo(CRLI[Nle]F)
SMILES: CCCC[C@@H]1NC(=O)[C@H]([C@@H](C)CC)NC(=O)[C@H](CC(C)C)NC(=O)[C@H](CCCNC(=N)N)NC(=O)[C@H](CS)NC(=O)[C@H](Cc2ccccc2)NC1=O
notes: also called Cyclo-CRLI(Nle)F; cyclic peptide #34
B18: the binding result in experiment [1] was “binds”.

B19: cyclo-cys arg leu ile (Nva) phe (peptide)
peptide: cyclo(CRLI[Nva]F)
SMILES: CCC[C@@H]1NC(=O)[C@H]([C@@H](C)CC)NC(=O)[C@H](CC(C)C)NC(=O)[C@H](CCCNC(=N)N)NC(=O)[C@H](CS)NC(=O)[C@H](Cc2ccccc2)NC1=O
notes: also called Cyclo-CRLI(Nva)F; cyclic peptide #35
Consider B19, for which, in experiment [1], the binding result is reported as “binds”.

The record behind these values is patent US20240270793A1, “COMPOSITIONS” (UNIVERSITY OF SOUTHAMPTON, priority 2020, published 2024).
